What was measured:
[1] = system: immortalized murine embryonic fibroblasts (Mef); assay: Pooled negative selection RNAi screening (deep sequencing); type: cell-based; settings: deep sequencing reads, on dox compared to initial representation
In short: (§1)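 A pool of 1230 tet-regulated shRNAs (TRMPV-type) was retrovirally transduced at mostly single copy and ~1000-fold representation into tet-on MLL/AF9+Nras AML cells or immortalized murine embryonic fibroblasts, then cultured on or off doxycycline. shRNA-expressing cells were FACS-sorted, and shRNA representation was quantified by PCR and deep sequencing of genomic DNA, with depletion on dox compared against t0 and off dox.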

[2] = system: tet-on competent MLL/AF9+Nras AML; assay: as above; type: cell-based, mouse; settings: deep sequencing reads, On Dox compared to T0
In short: as §1

HCT116 cells = assay: HCT116 proliferation assay: cell counts of shRNA-transduced cultures; type: cell-based, human; settings: 5 days post-infection; normalized to EBNA1mi1666 and Lucifmi203 cultures
Method: HCT116 cultures in 24-well plates were infected separately with amphotropic retrovirus encoding 254 different shRNAs targeting 83 cell cycle and/or E2F regulated genes. On day 1 following infection each culture was suspended in media containing 1.5 μg/mL puromycin to select for cells transduced with the hairpins, then seeded to 6-well plates. On day 5 following infection, cells in each culture were suspended in media and counted using a hemacytometer. Results for each culture were normalized to the average of the number of cells counted in cultures transduced with hairpins targeting either of two different genes not endogenous to HCT116 cells (EBNA1 and Ff-luciferase).
About 24 hours prior to infection, 150,000 HCT116 cells were seeded per well of a 24-well plate in 0.4 mL DMEM+10% FBS. At the time of the first round of infection, culture media was aspirated from each HCT116 culture and 0.5 mL media containing virus, obtained from ˜36-hour post-transfection packaging cell culture as described above, was added to each HCT116 culture. Each HCT116 culture was infected with virus encoding a particular shRNA. […]
About 24 hours after the second round of infection of the HCT116 cultures, cells from each culture were suspended and seeded to 6-well plates in 2 mL DMEM+10% FBS+1.5 μg/mL puromycin per well. […] Following two more days of growth (day 5 post-infection), cells in each culture were suspended in complete DMEM and cell numbers per culture were counted using a hemacytometer. […]
In each experiment, HCT116 cells were also transduced with hairpins against EBNA1 (EBNA1mi1666) and Ff-luciferase (lucifmi203). […] Similar to cultures transduced with other shRNAs, on day 5 post-infection, HCT116 cells in cultures transduced with either EBNA1mi1666 or Lucifmi203 were suspended and counted using a hemacytometer. […]
The average cell number in HCT116 cultures transduced with EBNA1mi1666 and Lucifmi203 was calculated for each experiment and cell numbers in cultures transduced with the other shRNAs in the given experiment were normalized to this value. […]

[3] = system: normal hematopoietic cells; assay: Dual-color competition assay of hematopoietic reconstitution in vivo; settings: 4 weeks after transplantation, LMN-GFP vs mCherry control
Method: LMN vectors harboring shRNAs are transduced into fetal livers. Infected cells are subsequently transplanted into lethally irradiated recipients. This assay compares the relative contribution of the experimental shRNA (in an LMN vector harboring a GFP marker) to a control, neutral shRNA (in an LMN vector harboring a red fluorescent protein marker (mCherry)). The effect of the experimental shRNA on hematopoesis is assessed by the ratio of these two markers in subsets of peripheral blood cells, or bone marrow or spleen, measured at 4 weeks.
As an additional verification that therapy resistant AML leukemias harbor a unique sensitivity to inhibition of the identified epigenetic pathways, the influence of the epigenetics shRNAs on normal hematopoiesis was also examined in vivo following retroviral transduction of LMN (MSCV-miR30/shRNA-PGK-Neo-IRES-GFP; constructed by inserting a miR30-cassette and a PGK-NeomycinR-IRES-GFP cassette in the MSCV-backbone (Clontech)) into E13.5 fetal livers and subsequent transplantation of infected cells into lethally irradiated recipients (FIG. 27). This assay compares the relative contribution of the experimental shRNA vector (linked with GFP) to control, neutral shRNA LMN vector that harbors the red fluorescent protein (mCherry). At 4 weeks following transplantation of the mixed GFP+ and mCherry+ cells into recipient animals, the ratio of these two colors is measured in subsets of peripheral blood cells of various hematopoietic lineages or in bone marrow and spleens by co-staining with surface markers (e.g. Mac1, Gr1 for myeloid, B220 for B-lymphoid).

Molecule	Fold depletion in Mef [1]	Fold depletion in AML [2]	Cell # in culture/average cell number in negative control cultures (HCT116 cells)	impact on proliferation of normal hematopoietic cells in vivo [3]
Renilla.713: neutral control shRNA, SEQ ID NO: 213 (nucleic acid) TGCTGTTGACAGTGAGCGCAGGAATTATAATGCTTATCTATAGTGAAGCCACAGATGTATAGATAAGCATTATAATTCCTATGCCTACTGCCTCGGA	1.02 Fold	1.29 Fold		
Orc2mil903: shRNA targeting ORC2, SEQ ID NO: 18 (nucleic acid) TGCTGTTGACAGTGAGCGAGGAACTGATGGAGTAGAGTATTAGTGAAGCCACAGATGTAATACTCTACTCCATCAGTTCCCTGCCTACTGCCTCGGA			0.7115	
Ptgs2.1082: neutral control shRNA, SEQ ID NO: 209 (nucleic acid) TGCTGTTGACAGTGAGCGCCAAGATAGTGATCGAAGACTATAGTGAAGCCACAGATGTATAGTCTTCGATCACTATCTTGATGCCTACTGCCTCGGA	0.51 Fold	0.51 Fold		
Ptgs2.2058: neutral control shRNA, SEQ ID NO: 210 (nucleic acid) TGCTGTTGACAGTGAGCGCCCGGTGTTTGTCCTTTAAATATAGTGAAGCCACAGATGTATATTTAAAGGACAAACACCGGATGCCTACTGCCTCGGA	1.27 Fold	1.78 Fold		
Kit.1241: neutral control shRNA, SEQ ID NO: 194 (nucleic acid) TGCTGTTGACAGTGAGCGATTCCGTGACATTCAACGTTTATAGTGAAGCCACAGATGTATAAACGTTGAATGTCACGGAAGTGCCTACTGCCTCGGA	0.99 Fold	1.88 Fold		
Orc2mil981: shRNA targeting ORC2, SEQ ID NO: 19 (nucleic acid) TGCTGTTGACAGTGAGCGAGAGGCTTGAAGCTTTCCTTTATAGTGAAGCCACAGATGTATAAAGGAAAGCTTCAAGCCTCCTGCCTACTGCCTCGGA			0.8496	
Mn1.1403: neutral control shRNA, SEQ ID NO: 205 (nucleic acid) TGCTGTTGACAGTGAGCGCAACGGTACCCTAGACAACCAATAGTGAAGCCACAGATGTATTGGTTGTCTAGGGTACCGTTATGCCTACTGCCTCGGA	0.77 Fold	1.94 Fold		
Mn1.2545: neutral control shRNA, SEQ ID NO: 206 (nucleic acid) TGCTGTTGACAGTGAGCGCCAGCGCGGTTGCAGCCGGTAATAGTGAAGCCACAGATGTATTACCGGCTGCAACCGCGCTGTTGCCTACTGCCTCGGA	0.29 Fold	0.81 Fold		
Ptgs2.284: neutral control shRNA, SEQ ID NO: 211 (nucleic acid) TGCTGTTGACAGTGAGCGAAAGAATCAAATTACTGCTGAATAGTGAAGCCACAGATGTATTCAGCAGTAATTTGATTCTTGTGCCTACTGCCTCGGA	1.21 Fold	0.34 Fold		
mi550: shRNA targeting ORC1, SEQ ID NO: 17 (nucleic acid) TGCTGTTGACAGTGAGCGCGGAAATATTCTGGTATGATTATAGTGAAGCCACAGATGTATAATCATACCAGAATATTTCCTTGCCTACTGCCTCGGA			0.8719	
Suz12.1676: shRNA, SEQ ID NO: 75 (nucleic acid) guide: TGCTGTTGACAGTGAGCGATAGGATAGATGTTTCAATCAATAGTGAAGCCACAGATGTATTGATTGAAACATCTATCCTAGTGCCTACTGCCTCGGA				little, if any impact
Mn1.5864: neutral control shRNA, SEQ ID NO: 208 (nucleic acid) TGCTGTTGACAGTGAGCGCATCGCTATTGCACATGTATAATAGTGAAGCCACAGATGTATTATACATGTGCAATAGCGATTTGCCTACTGCCTCGGA	1.09 Fold	0.61 Fold		
Trp53.1224: neutral control shRNA, SEQ ID NO: 214 (nucleic acid) TGCTGTTGACAGTGAGCGCCCACTACAAGTACATGTGTAATAGTGAAGCCACAGATGTATTACACATGTACTTGTAGTGGATGCCTACTGCCTCGGA	0.84 Fold	0.10 Fold		
BRAF.5053: neutral control shRNA, SEQ ID NO: 193 (nucleic acid) TGCTGTTGACAGTGAGCGCTAGGGTGATGTCTCACTTGAATAGTGAAGCCACAGATGTATTCAAGTGAGACATCACCCTATTGCCTACTGCCTCGGA	0.33 Fold	0.66 Fold		
Eed.1829: shRNA targeting Eed; probably Eed.1820, SEQ ID NO: 227 (nucleic acid) guide: TGCTGTTGACAGTGAGCGCTAGAAGTAATGTATCTTGCTATAGTGAAGCCACAGATGTATAGCAAGATACATTACTTCTATTGCCTACTGCCTCGGA				little, if any impact
BRAF.3750: neutral control shRNA, SEQ ID NO: 191 (nucleic acid) TGCTGTTGACAGTGAGCGCTAGCATAATGACAATTATTTATAGTGAAGCCACAGATGTATAAATAATTGTCATTATGCTAATGCCTACTGCCTCGGA	1.08 Fold	0.76 Fold		
Ptgs2.3711: neutral control shRNA, SEQ ID NO: 212 (nucleic acid) TGCTGTTGACAGTGAGCGCAACGTTCATGGATAAATTCTATAGTGAAGCCACAGATGTATAGAATTTATCCATGAACGTTATGCCTACTGCCTCGGA	1.46 Fold	1.38 Fold		
Smarcd1.1858: shRNA, SEQ ID NO: 70 (nucleic acid) guide: TGCTGTTGACAGTGAGCGCTAGGACCTCTAGATAGTGTTATAGTGAAGCCACAGATGTATAACACTATCTAGAGGTCCTATTGCCTACTGCCTCGGA				little, if any impact
BRAF.3826: neutral control shRNA, SEQ ID NO: 192 (nucleic acid) TGCTGTTGACAGTGAGCGCCCCATTGTTTCTTCCAACTTATAGTGAAGCCACAGATGTATAAGTTGGAAGAAACAATGGGATGCCTACTGCCTCGGA	0.87 Fold	0.92 Fold		
Mn1.5760: neutral control shRNA, SEQ ID NO: 207 (nucleic acid) TGCTGTTGACAGTGAGCGCTTGGTTTAGCAGGAAGAATAATAGTGAAGCCACAGATGTATTATTCTTCCTGCTAAACCAAATGCCTACTGCCTCGGA	0.91 Fold	0.38 Fold		
